Reference: patent US8673850B2, “PCSK9 inhibitors and methods of use thereof” (Institut de Recherches Cliniques de Montreal, priority 2008, dated 2014)
Positions count from the first letter of the chain named. Names and notes keep the numbering of the source. One block for each molecule: values may come before it.

Assays:
PCSK9-LDLR interaction = PCSK9-LDLR interaction (Homo sapiens, UniProt Q8NBP7); test: AlphaScreen PCSK9-LDLR interaction assay; type: binding
Protocol: AlphaScreen® (Perkin Elmer) streptavidin donor beads were coated with purified biotin-conjugated PCSK9 and AlphaScreen® nickel chelate acceptor beads were coated with purified His6-conjugated LDLR ectodomain. Competition in the AlphaScreen® PCSK9-LDLR interaction assay was measured, in the presence of increasing concentrations of AnxA2-derived peptides, as a reduction of fluorescence.

PCSK9-V5 [1] = molecular target: T1, PCSK9-V5 (Homo sapiens, UniProt Q8NBP7); test: Far Western blot with PCSK9-V5 conditioned media; type: binding; parameters: made in house; host or cells: CHO-K1 cells (conditioned medium, not purified); conditions: lysates of cells overexpressing the construct
Protocol: Lysates (20 to 30 μg protein), media or purified AnxA2-(His)6 were heated in reducing or non-reducing Laemmli sample buffer, resolved by SDS-PAGE on 8% glycine gels and electro-transferred onto nitrocellulose membranes (GE Healthcare). Following 1 h incubation in 5% skim milk in Tris-Buffered Saline-0.1% Tween (TBST), membranes where incubated with conditioned media of CHO-K1 cells overexpressing either an empty vector (pIRES-V5), PC5A-V5, CHRD-V5, pIRES-D374Y, PCSK9-V5 or its V5-tagged mutants, or incubated with purified AnxA2-(His)6 for 3 h at room temperature. […] For competition experiments, 10 μg of His-tagged PCSK9 or CHRD were added to the PCSK9-V5 media before Far Western blotting. For PCSK9 binding requirements with the ˜33 kDa protein, 1M NaCl, 10 mg/ml heparin, 1M NaCl+10 mg/ml heparin, or 100 mM EDTA were added to the PCSK9-V5 conditioned media used for Far Western blotting.
Wild type human Annexin A2 (AnxA2) (ATCC #MGC-2257) and Annexin A1 (AnxA1) (ATCC #MGC-5095) were purchased from ATCC and subcloned into NheI/SacI digested pIRES2-EGFP vector. An HA epitope ([…]) was fused by PCR mutagenesis at the C-terminus of both AnxA1 and AnxA2. Two-steps PCRs were performed on AnxA2 cDNA to introduce point mutations (N62Q; S64A; K28S+D34N+E36S; R37S+E43H+K47M; 77RRTKK (SEQ ID NO: 26)>AATAK (SEQ ID NO: 27); ^77RRTKK (SEQ ID NO: 26)>AATAA (SEQ ID NO: 28); ^77RRTKKELASALK (SEQ ID NO: 29)>^77AATAAELASALA (SEQ ID NO: 30); 80KKELA (SEQ ID NO: 31)>GKPLD (SEQ ID NO: 32)), or amino acid (aa) deletions (Δ2-24, aa 2-24; ΔR1, aa 37-108; ΔR2, aa 109-192; ΔR3, aa 193-268; ΔR4, aa 269-339; Δ25-36, aa 25-36; Δ37-48, aa 37-48; Δ49-61, aa 49-61; Δ62-75, aa 62-75; Δ37-66, aa 37-66; Δ74-88, aa 74-88; Δ82-88, aa 82-88; Δ89-101, aa 89-101; Δ102-108, aa 102-108) into pIRES2-AnxA2-EGFP vector (see Table 3 above). In addition, using PCR, the AnxA2 segment aa 49-75 was swapped with the corresponding AnxA1 segment aa 58-84 [AnxA1 (aa 58-84)>AnxA2 (aa 49-75)]. Similar swaps were performed for the corresponding AnxA2 sequence with AnxA1 (AnxA1>AnxA2: aa 25-27; aa 28-30; aa 31-33; aa 34-36; aa 37-39; aa 40-42; aa 43-45; aa 46-48; aa 49-75; aa 49-61; aa 62-75). All final cDNA constructs were verified by DNA sequencing.
Target sequence in this assay (Q8NBP7 153-692): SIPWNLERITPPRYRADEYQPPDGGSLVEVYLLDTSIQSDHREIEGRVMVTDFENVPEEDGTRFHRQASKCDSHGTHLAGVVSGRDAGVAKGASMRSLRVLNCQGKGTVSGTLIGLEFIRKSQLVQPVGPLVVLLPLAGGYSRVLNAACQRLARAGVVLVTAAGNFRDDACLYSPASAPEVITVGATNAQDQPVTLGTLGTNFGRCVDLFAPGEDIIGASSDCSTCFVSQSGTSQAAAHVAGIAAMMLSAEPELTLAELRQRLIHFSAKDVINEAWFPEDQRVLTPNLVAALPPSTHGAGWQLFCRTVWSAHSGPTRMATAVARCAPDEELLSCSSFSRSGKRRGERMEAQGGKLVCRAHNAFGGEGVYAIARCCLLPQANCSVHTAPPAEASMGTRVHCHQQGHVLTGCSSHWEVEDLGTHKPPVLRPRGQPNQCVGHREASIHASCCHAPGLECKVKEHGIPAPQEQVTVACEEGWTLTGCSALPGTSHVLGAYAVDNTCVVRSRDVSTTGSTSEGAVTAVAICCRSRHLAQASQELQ
Target sequence in this assay (Q8NBP7 31-152 partner limits assumed): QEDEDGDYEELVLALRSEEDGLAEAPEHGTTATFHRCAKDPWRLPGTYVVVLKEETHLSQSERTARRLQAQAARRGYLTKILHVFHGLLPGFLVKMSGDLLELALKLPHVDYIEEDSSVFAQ

PCSK9-V5 [2] = molecular target: T1, PCSK9-V5; test: Co-immunoprecipitation in co-transfected CHO-K1 cells; type: binding; parameters: expressed in transfected cells; host or cells: CHO-K1 cells co-transfected with AnxA1-HA, AnxA2-HA or AnxA2-HA and p11; conditions: co-expression in CHO-K1 cells
Protocol: For immunoprecipitation cell lysates were incubated overnight at 4° C. with anti-V5-agarose beads (Sigma) and washed 5 times with cold lysis buffer.
Target sequence in this assay (Q8NBP7 153-692): as the sequence (Q8NBP7 153-692) above

LDLR = LDLR Western blot of transfected HEK293 cells; type: cell-based, human; conditions: HEK293 cells (negligible PCSK9), with or without p11
Protocol: HepG2, HuH7, COS-1, BSC40 and HEK293 cell were grown in Dulbecco's modified Eagle's medium (DMEM) with 10% fetal bovine serum (FBS; Gibco), whereas CHO-K1 and CHO-K1 mutant Pgsd-677 cells that lack heparan sulfate proteoglycans^26 were grown in Ham's F12:DMEM (50:50) media with 10% FBS. Y1 mouse adrenal cells were grown in F12K medium with 15% horse serum and 2.5% FBS. All cells were maintained at 37° C. under 5% CO2. At 80-90% confluence, HuH7 and CHO-K1 cells were transiently transfected with Lipofectamine™ 2000 (Invitrogen), HEK293 cells were transfected with Effectene™ (Qiagen) and HepG2 cells were transfected with Fugene™ HD (Roche). […] For analysis of the various AnxA2 mutants in HEK293 cells, 24 h post-transfection, the cells were washed and then incubated for another 24 h in complete medium containing 50 μM of the proteasome inhibitor ALLN (Calbiochem). Stable transfectants of shRNA-AnxA2 were obtained in HuH7 cells following puromycin selection.
Western blotting experiments were made on samples that were reduced in Laemmli buffer, heated and resolved on 8% glycine SDS-PAGE gels. Separated proteins were then electro-transferred onto nitrocellulose, and probed with HRP-conjugated anti-V5 or anti-HA tags or with primary antibodies. […] Quantitation of band intensity was done with the ImageJ™ software version 1.37 (Wayne Rasband, National Institutes of Health, Bethesda, Md.).

PCSK9-V5 [3] = molecular target: T1, PCSK9-V5; test: Hexa-His pull-down assay; type: binding; parameters: made in house; host or cells: CHO-K1 cells (conditioned medium, not purified); conditions: 20 μg protein immobilized on cobalt chelate resin
Protocol: 20 μg of purified AnxA2-(His)6 or AnxA1-(His)6 or no proteins (for negative control) were immobilized onto a cobalt chelate resin (Thermo Scientific). The resin was then washed several times with 40 mM immidazole and incubated overnight at 4° C. with 800 μl of conditioned media from PCSK9-V5-transfected CHO-K1 cells containing 40 mM immidazole. The resin was then washed several times with immidazole (40 mM), heated in reducing Laemmli sample buffer and centrifuged. Supernatants were analyzed by Western blot as described above using the anti-V5-HRP or anti-His-HRP antibodies.
Target sequence in this assay (Q8NBP7 153-692): as above
Target sequence in this assay (Q8NBP7 31-152 partner limits assumed): as the sequence (Q8NBP7 31-152 partner limits assumed) above

Sequence of PCSK9-LDLR interaction (Q8NBP7 153-692): as the sequence (Q8NBP7 153-692) above
Sequence of PCSK9-LDLR interaction (Q8NBP7 31-152 partner limits assumed): as the sequence (Q8NBP7 31-152 partner limits assumed) above

Molecule: peptide extending from amino acid 49 to 97: shorter AnxA2-derived peptide extending from amino acid 49 to 97 (KGVDEVTIVNILTNRSNAQRQDIAFAYQRRTKKELASALKSALSGHLET; HOMO SAPIENS)
- inhibitory activity on the PCSK9-LDLR ectodomain interaction (PCSK9-LDLR interaction): inhibits the interaction between PCSK9 and the ectodomain of LDLR however to a lesser extent

B3: K28S+D34N+E36S: AnxA2 with Lys28, Asp34, Glu36 replaced by AnxA1 Ser, Asn, Ser (protein)
chain: MSTVHEILCKLSLEGDHSTPPSAYGSVSAYTNFNASRDALNIETAIKTKGVDEVTIVNILTNRSNAQRQDIAFAYQRRTKKELASALKSALSGHLETVILGLLKTPAQYDASELKASMKGLGTDEDSLIEIICSRTNQELQEINRVYKEMYKTDLEKDIISDTSGDFRKLMVALAKGRRAEDGSVIDYELIDQDARDLYDAGVKRKGTDVPKWISIMTERSVPHLQKVFDRYKSYSPYDMLESIRKEVKGDLENAFLNLVQCIQNKPLYFADRLYDSMKGKGTRDKVLIRIMVSRSEVDMLKIRSEFKRKYGKSLYYYIQQDTKGDYQKALLYLCGGDD
- PCSK9-V5 binding by Far Western blot (PCSK9-V5 [1]): slightly reduced the ability of PCSK9 to bind AnxA2

B5: AnxA1: human Annexin A1, closely related family member used as control (protein, UniProt P04083 2-346, looked up)
Annexin A1: AMVSEFLKQAWFIENEEQEYVQTVKSSKGGPGSAVSPYPTFNPSSDVAALHKAIMVKGVDEATIIDILTKRNNAQRQQIKAAYLQETGKPLDETLKKALTGHLEEVVLALLKTPAQFDADELRAAMKGLGTDEDTLIEILASRTNKEIRDINRVYREELKRDLAKDITSDTSGDFRNALLSLAKGDRSEDFGVNEDLADSDARALYEAGERRKGTDVNVFNTILTTRSYPQLRRVFQKYTKYSKHDMNKVLDLELKGDIEKCLTAIVKCATSKPAFFAEKLHQAMKGVGTRHKALIRIMVSRSEIDMNDIKAFYQKMYGISLCQAILDETKGDYEKILVALCGGN
- co-immunoprecipitation with PCSK9-V5 (PCSK9-V5 [2]): not
- levels of endogenous LDLR (LDLR): None of these treatments affected the levels of endogenous LDLR

B6: AnxA1-(His)6: purified His-tagged Annexin A1 purchased from EMD biosciences (protein)
chain: MAMVSEFLKQAWFIENEEQEYVQTVKSSKGGPGSAVSPYPTFNPSSDVAALHKAIMVKGVDEATIIDILTKRNNAQRQQIKAAYLQETGKPLDETLKKALTGHLEEVVLALLKTPAQFDADELRAAMKGLGTDEDTLIEILASRTNKEIRDINRVYREELKRDLAKDITSDTSGDFRNALLSLAKGDRSEDFGVNEDLADSDARALYEAGERRKGTDVNVFNTILTTRSYPQLRRVFQKYTKYSKHDMNKVLDLELKGDIEKCLTAIVKCATSKPAFFAEKLHQAMKGVGTRHKALIRIMVSRSEIDMNDIKAFYQKMYGISLCQAILDETKGDYEKILVALCGGNHHHHHH
- PCSK9-V5 bound in pull-down (PCSK9-V5 [3]): does not

Results, then the molecule that gave them:

- inhibition of the PCSK9-LDLR interaction (PCSK9-LDLR interaction; 10 uM (not shown)): up to 90%
Molecule: GSVKAYTNFDAERDALNIETAIKTKGVDEVTIVNILTNRSNAQRQDIAFAYQRRTKKELASALKSALSGHLET [No 896970, 73-mer AnxA2 R1 peptide extending from amino acids 25 to 97]

- PCSK9-V5 binding by Far Western blot (PCSK9-V5 [1]): abolished
B1: SW49-75: AnxA2 segment aa 49-75 swapped with AnxA1 aa 58-84 (protein)
chain: MSTVHEILCKLSLEGDHSTPPSAYGSVKAYTNFDAERDALNIETAIKTKGVDEATIIDILTKRNNAQRQQIKAAYQRRTKKELASALKSALSGHLETVILGLLKTPAQYDASELKASMKGLGTDEDSLIEIICSRTNQELQEINRVYKEMYKTDLEKDIISDTSGDFRKLMVALAKGRRAEDGSVIDYELIDQDARDLYDAGVKRKGTDVPKWISIMTERSVPHLQKVFDRYKSYSPYDMLESIRKEVKGDLENAFLNLVQCIQNKPLYFADRLYDSMKGKGTRDKVLIRIMVSRSEVDMLKIRSEFKRKYGKSLYYYIQQDTKGDYQKALLYLCGGDDYPYDVPDYA

- PCSK9-V5 binding by Far Western blot (PCSK9-V5 [1]): abolished PCSK9 binding
B2: Δ25-36: AnxA2 deletion of aa 25-36 (protein)
chain: MSTVHEILCKLSLEGDHSTPPSAYRDALNIETAIKTKGVDEVTIVNILTNRSNAQRQDIAFAYQRRTKKELASALKSALSGHLETVILGLLKTPAQYDASELKASMKGLGTDEDSLIEIICSRTNQELQEINRVYKEMYKTDLEKDIISDTSGDFRKLMVALAKGRRAEDGSVIDYELIDQDARDLYDAGVKRKGTDVPKWISIMTERSVPHLQKVFDRYKSYSPYDMLESIRKEVKGDLENAFLNLVQCIQNKPLYFADRLYDSMKGKGTRDKVLIRIMVSRSEVDMLKIRSEFKRKYGKSLYYYIQQDTKGDYQKALLYLCGGDDYPYDVPDYA

- PCSK9-V5 binding by Far Western blot (PCSK9-V5 [1]): significant decrease of binding
B4: R37S+E43H+K47M: AnxA2 with Arg37, Glu43, Lys47 replaced by AnxA1 Ser, His, Met (protein)
chain: B3 chain with S28K, N34D, S36E, R37S, E43H, K47M
